The target of assay [1] is human PlGF-1 comprising amino acids 1-137 produced in human embryonic kidney cells (human) (UniProt P49763). Nature of the assay: Format 2 …, capture MAb264, detection Pb264; sFlt-1 9200 pmol/L (ratio 300).
For assay [2] the target is unchanged. The assay can be described thus: Format 1 …, capture 2-826-335, detection 1-255-713; sFlt-1 1227 pmol/L (ratio 40).
Assay [3] has the same target. The assay can be described thus: Format 3 Quantikine ELISA, capture MAb264, detection Pb264; sFlt-1 613 pmol/L (ratio 20).
For assay [4] the target is unchanged. The assay can be described thus: Format 1 …, capture 2-826-335, detection 1-255-713; sFlt-1 4600 pmol/L (ratio 150).
For assay [5] the target is unchanged. The assay can be described thus: Format 3 Quantikine ELISA, capture MAb264, detection Pb264; sFlt-1 2300 pmol/L (ratio 75). For orientation: ELISA stands for enzyme-linked immunosorbent assay.
The target is the same in assay [6]. Nature of the assay: Format 2 …, capture MAb264, detection Pb264; sFlt-1 613 pmol/L (ratio 20).
For assay [7] the target is unchanged. Nature of the assay: Format 2 …, capture MAb264, detection Pb264; sFlt-1 4600 pmol/L (ratio 150).
Assay [8] deals with T1, CHO human PlGF-1 fragment (comprising amino acids 17-131; ATCC PTA-8540) (human, UniProt P49763 35-221).
T1 sequence: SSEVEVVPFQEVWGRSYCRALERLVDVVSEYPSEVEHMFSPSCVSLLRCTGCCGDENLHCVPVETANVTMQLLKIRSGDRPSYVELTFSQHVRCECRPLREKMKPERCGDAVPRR
Nature of the assay: … sandwich, capture MAb826, detection pAb264; antigen 15 pg/mL.

For assay [9], the target named is T2, human PlGF-1 fragment (comprising amino acids 17-131) produced in human embryonic kidney cells (human, UniProt P49763 35-221).
T2 sequence: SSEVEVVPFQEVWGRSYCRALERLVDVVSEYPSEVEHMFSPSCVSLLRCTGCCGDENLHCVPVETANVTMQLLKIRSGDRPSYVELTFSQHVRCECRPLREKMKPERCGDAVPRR
The assay is described as above.

The target of assay [10] is T3, human PlGF-1 comprising amino acids 1-137 produced in human embryonic kidney cells (human, UniProt P49763 19-221).
T3 construct: Mature human PlGF-1 with 6xHis tag; also called HEK (1-137); full length HEK human PlGF-1 (1-137)
T3 sequence: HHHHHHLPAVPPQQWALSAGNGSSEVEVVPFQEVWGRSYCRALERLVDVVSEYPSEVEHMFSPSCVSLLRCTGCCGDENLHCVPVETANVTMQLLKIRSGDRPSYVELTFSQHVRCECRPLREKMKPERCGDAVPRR
The description is as above.

The target of assay [11] is T4, CHO human PlGF-1 comprising amino acids 1-137 (human PlGF-1-His (1-131), CHO 6305) (human, UniProt P49763 19-221, N-glycans at N21 (completely glycosylated) and N89 (partially glycosylated)).
T4 construct: Mature human PlGF-1 with 6xHis tag (137 amino acids); also called CHO (1-137)
T4 sequence: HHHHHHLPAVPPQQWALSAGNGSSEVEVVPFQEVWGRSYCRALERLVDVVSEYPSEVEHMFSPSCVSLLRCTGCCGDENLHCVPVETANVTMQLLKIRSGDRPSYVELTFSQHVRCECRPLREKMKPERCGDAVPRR
Described as above.

Assay [12] deals with recombinant human PlGF-1 (comprising amino acids 1-131) expressed in E. coli (R&D Systems) (human) (UniProt P49763). Nature of the assay: … sandwich, capture MAb255, detection MAb826; antigen 1500 pg/mL.
For assay [13] the target is unchanged. Nature of the assay: … sandwich, capture MAb255, detection pAb264; antigen 1500 pg/mL.
For assay [14] the target is unchanged. Nature of the assay: … sandwich, capture MAb255, detection pAb264; antigen 250 pg/mL.
For assay [15] the target is unchanged. Nature of the assay: … sandwich, capture MAb255, detection MAb826; antigen 0 pg/mL (blank).
For assay [16] the target is unchanged. The assay can be described thus: … sandwich, capture MAb255, detection MAb826; antigen 60 pg/mL.
The target in assay [17] is T1, CHO human PlGF-1 fragment (comprising …). Nature of the assay: … sandwich, capture MAb255, detection pAb264; antigen 0 pg/mL (blank).
The target in assay [18] is T2, human PlGF-1 fragment (comprising amino …). Described as above.
In assay [19] the target is T3, human PlGF-1 comprising amino acids …. Described as above.
The target in assay [20] is T4, CHO human PlGF-1 comprising amino acids …. The assay is described as above.

The % Inhibition is the change of the read-out against control, counted positive when it falls. With “native sFlt-1, isolated from human placental tissue (from UniProt P17948 27-687) (receptor)”, the % Inhibition in assay [1] was 97.5%; in assay [2] it was 91.9%; in [3], 40.4%; in assay [4] it was 95%; in assay [5] it was 75.9%; in [6] it was 89.5%. Also, the % Inhibition in assay [7] came out at 96.5%. In addition, the PlGF-1 Measured in assay [1] was 20 pg/mL; in assay [2] it was 83.2 pg/mL; in assay [3], 515 pg/mL; in assay [4] it was 51.3 pg/mL; in assay [5] it was 209 pg/mL; in assay [6], 82.9 pg/mL. Moreover, the PlGF-1 Measured in assay [7] turned out to be 27.5 pg/mL.

B1: monoclonal antibody 2-826-335 (produced by murine hybridoma cell line 2-826-335, ATCC PTA-8539) (antibody, mouse IgG1, V domains shown)
VH: QVQLKQSGPGLVQPSQSLSITCTVSGFSLTTYGIHWVRQSPGKGLEWLGVMWSGGDTDYDAAFISRLSISKDNSKSQVFFKMNSLQANDTGIYYCARYRFYGMDYWGQGTSVTVSS
VL: AIQMTQSSSSFSVSLGDRVTITCKASEDIYNRFAWYQQKPGNAPRLLISGAASLEAGVPSRFSGSGSGQDYTLSITSLQTEDVATYYCQQYWSTPWTFGGGTKLEIKR
notes: also called MAb826
Turning to B1, the RLU was determined as 11200 RLU in assay [8], 12800 RLU in [9], 15500 RLU in assay [10] and 10100 RLU in assay [11].

B2: monoclonal antibody 1-255-713 (produced by murine hybridoma cell line 1-255-713, ATCC PTA-8536) (antibody, mouse IgG2a, V domains shown)
VH: QVHLQQSGAELMKPGASVKISCKATGYTFSSYWIEWVKQRPGHGLEWIGEILPGSVSNNFNEKFKDKATLTADPSSNTAYIQVSSLTSEDSAVYYCARSTGFYYGGNYFDHWGQGTTLAVSS
VL: DVVMTQTPLSLPVSPGDQASISCRSSQSLVHSNGHTYLHWYLQKPGQSPKLLIYKVSNRFSGVPDRVSGSGSGTDFTLKISRVEAEDLGVYFCSQSTHVPPTFGGGTKLEIKR
notes: also called MAb255
With B2, the RLU in [12] was 1.35e+06 RLU; in assay [13], 2.19e+06 RLU; in assay [14], 543000 RLU; in assay [15] it was 6110 RLU; in assay [16] it was 83200 RLU; in [17], 14400 RLU. The values for the RLU in [18], in [19] and in assay [20] were 14200 RLU, 14200 RLU and 14500 RLU, respectively.
